These results are taken from US12383631 (BRIGHT PEAK THERAPEUTICS, dated 2025).

Sequences and labels used below:
B3: human IL-18BP-His (other)
chain: TPVSQTTTAATASVRSTKDPCPSQPPVFPAAKQCPALEVTWPEVEVPLNGTLSLSCVACSRFPNFSILYWLGNGSFIEHLPGRLWEGSTSRERGSTGTQLCKALVLEQLTPALHSTNFSCVLVDPEQVVQRHVVLAQLWAGLRATLPPTQEALPSSHSSPQQQG
notes: also called His-tagged human IL-18BP; not shown: His tag

Assay [1] concerns the target T1, recombinant biotinylated human FcRn (human, UniProt P55899 24-297; P61769 21-119, limits assumed, biotinylated).
T1 construct: also called human neonatal Fc receptor (FcRn)
Briefly: AlphaLISA competition at pH 6; competitor: human IgG on acceptor beads. The protocol:
The interaction of the unmodified and of conjugated anti-PD1 antibodies with the human neonatal Fc receptor (FcRn) at pH 6 was measured using the AlphaLISA® Human FcRn Binding Kit (AL3095C) from Perkin Elmer (Schwerzenbach, Switzerland).
After 90 min at 23° C. in the dark, AlphaLISA® signal was measured on an EnSpire plate reader (Excitation at 680 nm, Emission at 615 nm) from Perkin Elmer (Schwerzenbach, Switzerland). Binding Affinity of Reference Antibodies and Immunocytokines with the Human Neonatal Fc Receptor as Measured by AlphaLISA

For assay [2], the target named is T2, recombinant Human Fc gamma RIIB/CD32b Avi-tag Protein (R&D systems, AVI1875-050) (human, UniProt P31994 46-217).
T2 construct: also called FcγRIIb (CD32b); not shown: Avi-tag
T2 sequence (looked up): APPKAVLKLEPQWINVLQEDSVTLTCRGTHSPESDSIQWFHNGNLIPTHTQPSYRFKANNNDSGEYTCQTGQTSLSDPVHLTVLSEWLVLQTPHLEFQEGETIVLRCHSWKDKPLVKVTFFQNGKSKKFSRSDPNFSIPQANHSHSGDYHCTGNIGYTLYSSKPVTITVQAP
Put plainly: ELISA; antibody coated, receptor titrated, anti-His-HRP. As for the experimental part:
(§1) The interaction of the unmodified and of conjugated antibodies with human Fc gamma receptors I (FcγRI/CD64), with human Fc gamma receptors IIa (FcγRIIa/CD32a), with inhibitory human Fc gamma receptors IIb (FcγRIIb/CD32b), and with human Fc gamma receptors III FcγRIIIa/CD16 were measured by ELISA.
(§2) Briefly, Corning high-binding half-area plates (Fisher Scientific, Reinach, Switzerland) were coated overnight at 4° C. with 25 μl of unmodified and of conjugated anti-PD1 antibodies at 2.5 μg/ml in PBS. Plates were then washed four times with 100 μl of PBS-0.02% Tween20. Plates surfaces were blocked with 25 μl of PBS-0.02% Tween20-1% BSA at 37° C. during 1 h. Plates were then washed four times with 100 μl of PBS-0.02% Tween20. Then twenty-five microliters of either recombinant Human Fc gamma RI/CD64 Protein (R&D systems, 1257-FC-050, CF), recombinant Human Fc gamma RIIA/CD32a (H167) Protein (R&D systems, 9595-CD-050, CF), recombinant Human Fc gamma RIIB/CD32b Avi-tag Protein (R&D systems, AVI1875-050, CF), or recombinant Human Fc gamma RIIIA/CD16a Protein (R&D systems, 4325-FC-050; CF) were added in five-fold serial dilutions ranging from 1000 nM to 0.001 nM into PBS-0.02% Tween20-0.1% BSA and incubated at 37° C. during 2 h. Plates were then washed four times with 100 μl of PBS-0.02% Tween20. Twenty-five microliters of a 1/500 HRP-anti-His antibody in PBS—0.02% Tween20-0.1% BSA (R&D systems, anti-HIS—HRP Ab, #MAB050H) were added to each well and plates were incubated at Room Temperature during 1 h. Plates were then washed four times with 100 μl of PBS-0.02% Tween20. Fifty microliters of TMB substrate reagent (#CL07, Merck, Buchs, Switzerland) were added to each well and incubated at 37° C. during 5 min. After 5 min at 37° C., Horseradish peroxidase reaction was stopped by adding 50 μl/well of 0.5M H2SO4 stop solution. ELISA signal was then measured at 450 nm on an EnSpire plate reader from Perkin Elmer (Schwerzenbach, Switzerland). Binding Affinity of Reference Antibodies and Immunocytokines with Human Fc Gamma Receptors as Measured by ELISA
On the technique in general: An ELISA detects its analyte on a solid surface through an enzyme-linked reagent.

For assay [3], the target named is T3, recombinant Human Fc gamma RI/CD64 Protein (R&D systems, 1257-FC-050) (human, UniProt P12314 16-288).
T3 construct: detected with an anti-His antibody; tag not described; also called FcγRI/CD64; human Fc gamma receptor I
Described as above. As for the experimental part:
as §1, §2

Assay [4] has as its target T4, recombinant Human Fc gamma RIIIA/CD16a Protein (R&D systems, 4325-FC-050) (human, UniProt P08637 17-208).
T4 construct: detected with an anti-His antibody; tag and allotype not described; also called FcγRIIIa (CD16)
Described as above. The protocol: as §1, §2

For assay [5], the target named is T5, recombinant Human Fc gamma RIIA/CD32a (H167) Protein (R&D systems, 9595-CD-050) (human, UniProt P12318 36-218).
T5 construct: detected with an anti-His antibody; tag not described; also called FcγRIIa (CD32a)
T5 sequence (looked up): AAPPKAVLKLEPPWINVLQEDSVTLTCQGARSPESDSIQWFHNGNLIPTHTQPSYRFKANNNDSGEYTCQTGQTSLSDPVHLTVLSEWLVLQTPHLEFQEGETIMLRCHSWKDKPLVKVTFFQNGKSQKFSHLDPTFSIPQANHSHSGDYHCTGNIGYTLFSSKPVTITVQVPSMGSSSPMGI
The description is as above. The protocol: as §1, §2

Assay [6] concerns the target T6, IL-18 receptor (IL-18Rα/IL-18Rβ) on cells (HEK-Blue IL18R reporter cells, NK-92, KG-1) (human, UniProt Q13478 19-541; O95256 20-599).
T6 sequence (looked up) 1: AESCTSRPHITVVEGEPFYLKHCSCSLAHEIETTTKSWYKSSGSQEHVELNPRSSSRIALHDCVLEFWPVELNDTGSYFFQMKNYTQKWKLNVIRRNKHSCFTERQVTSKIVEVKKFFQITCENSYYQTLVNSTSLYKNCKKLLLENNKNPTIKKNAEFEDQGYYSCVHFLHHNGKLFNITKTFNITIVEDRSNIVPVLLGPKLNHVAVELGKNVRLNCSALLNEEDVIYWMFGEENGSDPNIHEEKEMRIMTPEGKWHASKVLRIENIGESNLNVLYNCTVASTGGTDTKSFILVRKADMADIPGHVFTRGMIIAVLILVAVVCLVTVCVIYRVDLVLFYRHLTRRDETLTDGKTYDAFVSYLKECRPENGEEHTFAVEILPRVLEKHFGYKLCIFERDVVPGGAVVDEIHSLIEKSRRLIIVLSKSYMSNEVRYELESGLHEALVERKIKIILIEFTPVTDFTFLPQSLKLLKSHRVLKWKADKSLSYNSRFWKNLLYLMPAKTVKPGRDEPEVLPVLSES
T6 sequence (looked up) 2: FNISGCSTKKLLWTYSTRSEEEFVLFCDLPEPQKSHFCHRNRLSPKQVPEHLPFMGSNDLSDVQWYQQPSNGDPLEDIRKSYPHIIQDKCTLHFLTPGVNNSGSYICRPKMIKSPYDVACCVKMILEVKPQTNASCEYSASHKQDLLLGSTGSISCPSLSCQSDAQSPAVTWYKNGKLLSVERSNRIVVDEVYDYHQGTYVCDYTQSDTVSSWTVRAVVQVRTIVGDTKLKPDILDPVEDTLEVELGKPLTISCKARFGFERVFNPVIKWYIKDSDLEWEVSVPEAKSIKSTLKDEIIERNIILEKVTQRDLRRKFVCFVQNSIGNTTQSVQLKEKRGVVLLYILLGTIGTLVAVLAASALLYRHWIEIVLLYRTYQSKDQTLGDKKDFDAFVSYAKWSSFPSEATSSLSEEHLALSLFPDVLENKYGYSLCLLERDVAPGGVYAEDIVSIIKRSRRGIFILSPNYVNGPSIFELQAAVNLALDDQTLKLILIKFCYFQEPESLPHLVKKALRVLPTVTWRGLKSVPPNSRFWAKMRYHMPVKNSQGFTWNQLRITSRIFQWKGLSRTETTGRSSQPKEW
Briefly: cell-based or functional assay.

Assay [7] has as its target T6, IL-18 receptor (IL-18Rα/IL-18Rβ) on …. Briefly: cell-based or functional assay. The source holds these as a separate data set.
Assay [8] shares this target. Put plainly: cell-based or functional assay. The source holds these as a separate data set.
For assay [9], the target named is B3. Briefly: AlphaLISA of free IL-18BP after incubation with IL-18BP-His. The protocol:
(§3) Under subdued light, 12.5 µl of pre-mixed Donor beads were added, followed by a short centrifugation step at 150 g, and incubated for 30 minutes at 20° C. under shaking at 750 rpm with no light. AlphaLisa signal was then measured on an Enspire plate reader (Perkin Elmer) using 680 and 615 nm as excitation and emission wavelengths respectively.
On the technique in general: Bead proximity is the source of the signal in Alpha formats.

For assay [10], the target named is T7, Composition B (Atezolizumab/Tecentriq conjugated to IL-18 polypeptide of SEQ ID NO: 30) (human, UniProt P0DOX5 2-449 = IgG part; P0DOX7 1-214; Q14116 37-193, chemical linker to the antibody; site not stated for this composition; chemical linker to IL-18; site not stated for this composition).
T7 construct: immunocytokine
The assay is described as above. As for the experimental part: as §3

B1: Durvalumab/Imfinzi (antibody, human IgG1, kappa)
heavy: EVQLVESGGGLVQPGGSLRLSCAASGFTFSRYWMSWVRQAPGKGLEWVANIKQDGSEKYYVDSVKGRFTISRDNAKNSLYLQMNSLRAEDTAVYYCAREGGWFGELAFDYWGQGTLVTVSSASTKGPSVFPLAPSSKSTSGGTAALGCLVKDYFPEPVTVSWNSGALTSGVHTFPAVLQSSGLYSLSSVVTVPSSSLGTQTYICNVNHKPSNTKVDKRVEPKSCDKTHTCPPCPAPEFEGGPSVFLFPPKPKDTLMISRTPEVTCVVVDVSHEDPEVKFNWYVDGVEVHNAKTKPREEQYNSTYRVVSVLTVLHQDWLNGKEYKCKVSNKALPASIEKTISKAKGQPREPQVYTLPPSREEMTKNQVSLTCLVKGFYPSDIAVEWESNGQPENNYKTTPPVLDSDGSFFLYSKLTVDKSRWQQGNVFSCSVMHEALHNHYTQKSLSLSPGK
light: EIVLTQSPGTLSLSPGERATLSCRASQRVSSSYLAWYQQKPGQAPRLLIYDASSRATGIPDRFSGSGSGTDFTLTISRLEPEDFAVYYCQQYGSLPWTFGQGTKVEIKRTVAAPSVFIFPPSDEQLKSGTASVVCLLNNFYPREAKVQWKVDNALQSGNSQESVTEQDSKDSTYSLSSTLTLSKADYEKHKVYACEVTHQGLSSPVTKSFNRGEC
notes: also called MEDI-4736
For orientation: Kd means the concentration at which binding is half-saturated. Consider B1, for which the Kd in assay [1] was found to be 8.31 nM; in [2] it was 233 nM; in assay [3] it was 2.34 nM; in [4], 234 nM; in [5], 160 nM.

B2: IL-18 polypeptide of SEQ ID NO: 30 (E6K, V11I, C38A, K53A, T63A, C76A, C127A) (ligand)
chain: YFGKLKSKLSIIRNLNDQVLFIDQGNRPLFEDMTDSDARDNAPRTIFIISMYADSQPRGMAVAISVKCEKISTLSAENKIISFKEMNPPDNIKDTKSDIIFFQRSVPGHDNKMQFESSSYEGYFLAAEKERDLFKLILKKEDELGDRSIMFTVQNED
notes: also called C086
With B2, the “EC50, IFNγ secretion, NK92 cells” value in assay [6] stood at 2 pM. In addition, in assay [7], the “EC50, IFNγ secretion, PD-1 positive KG-1 cells” value came out at 8 pM and the “EC50, IFNγ secretion, parental KG-1 cells” value came out at 0.012 nM. The “EC50, HEK-Blue IL18R reporter cells” value in [8] was 0.034 pM. The molecule also showed a dissociation constant (Kd) in assay [9] of 24.6 nM.
In turn, B3 had a Kd in [10] of 6.38 nM.
